experiment: yeast display, Sf9 membrane polyspecificity reagent, FACS + sequencing; frameworks hold sequencing errors
Summary of the method: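 A nanobody's polyreactivity label depends on the gate it was sorted from. Yeast display cells were stained with 10% biotinylated, detergent-solubilized Sf9 membrane reagent for 1 hour at 4 °C, enriched on streptavidin microbeads and sorted by FACS. The low and high (top ~1%) gates were set on anti-HA fluorescence for expression and streptavidin fluorescence for reagent binding.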

Sequence	polyreactivity (PSR sort gate)
QVQLVESGGGLVQAGGSLRLSCAASGSTFAQYAMGWYRQAPGKERELVAAISRGGGSTYYADSVKGRFTISRDNAKNTVYLQMNSLKPEDTAVYYCNARTSHYDKYGYWGQGTQVTVSS	high polyreactivity
QVQLVESGGGLVQAGGSLRLSCAASGRIFGAYAMGWYRQAPGKERELVADIRSTGSTNYADSVKGRFTISRDNAKNTVYLQMNSLKPEDTAVYYCAARWRSRRFGSGFEYWGQGTQVTVSS	high polyreactivity
QVQLVESGGGLVQAGGSRRLSCAASGSTFRGNAMGWYRQAPGKERELVAAITWSGDDTYYADSVKGRFTISRDNAKNTVYLQMNSLKPEDTAVYYCAADLAAFTLAVAYTYDYWGQGTQVTVSS	low polyreactivity
QVQLVESGGGLVQAGGSLRLSCAASGRIFLVYGMGWYREAPGKERELVASITYRGGSTYYADSVKGRFTISRDNAKNTVYLQMNSLKPEDTAVYYCADDGAFYASTEMDYWGQGTQVNVSS	low polyreactivity
QVQLVESGGGLVQAGGSLRLSCAASGRIFGVYAMGLYRQAPGKERELVAGITYSGGSTYYADSVKGRFTISRDNAKNTVYLQMNSLKPEDTAVYYCARYHWYYRVSKSDSWGQGTQVTVSS	high polyreactivity
QVQLVESGGGLVQAGGSLRLSCAASGSIFRVYAMGWYRQAPGKERELVAAITNGGNTNYADSVKGRFTISRDNAKNTVYLQMNSLKPEDTAVYYCAADPLRTPGARHTPYKGTYDYWGQGTQVTVSS	high polyreactivity
QVQLVESGGGIVQAGGSLRLSCAASGRIFAFNAMGWYRPAPGKERELVADITSSGVNTYYADSVKGRFTISRDNAINTVYLQMNSLKPEYTAVYYCAARSYLRWWVGMEYWGQGTQVTVSS	low polyreactivity
QVQLVESGGGLVQAGGSLRLSCAASGRIFTSNAMGWYRQAPGKEREFVAAITKRGGRTYYADSVKGRFTISRDNAKNTVYLQMNSLLPEDTAVYYCAAGATGTSYYGGDYWGQGTQVTVSS	high polyreactivity
QVQLVESGGGLVQAGGSLRLSCAASGSILPDYAMGWYRQAPGKERELVASITNSGDSTYYADSVKGRFTISRDNAKNPVYLQMNSLKPEDTAVYYCNADSVRYDYSANDYEYWGQGSQVTVSS	high polyreactivity
QVQLVESGGGLVQAGGSLRLSCASSVRIFGSNVMGWYRQAPGKERELVASISSGGNTYYADSVKGRFTISRDNAKNTVYLQMNSLKPEDTAVYYCAARRGSAGQWYDYWGQGTQVTVSS	high polyreactivity
QVQLVESGGGVVQAGGSLRLSCAASGGIILEYVMGWYRQARGEERELVAAISWSGTSTYYADSVKGRFTISRDNAKNTVYLQMNSLKPEDTAVYYCAKSEGVYSGWYGVDDYDYWGQGTQVTVSS	low polyreactivity
QVQLVESGGGLVQAGGSLRLSCAASGSIYGPYAMGLYRQAPGKERELVAAISSGGSTYYADSVKGRFTISRDNAKNTVYLQMNSLKPEDTAVYYCNKYWGFSYLPYDSWGQGTQVTVSS	low polyreactivity
QVQLVESGGGLDQARGSLRLSCAASGSTFYLYAMGWYRQAPGKERELVAAISSGGRTYYADSVKGRFTISRDNAKNTVYLQMNSLKPEDTAVYYCAKVYRRRYYWGQGTQVTVSS	high polyreactivity
QVQLVESGGGLVQAGGSLRLICAASGRIFGVYVMGLYRPAPGKERELVAAISWSGSHTYYADSVKGRFTISRDNAKNTVYLQMNSLKPEDTAVYYCNADSYPEYTGPGLDWYDYWGQGTQVTVSS	low polyreactivity
QVQLVESGGGLVQAGGSLRLSCAASGRIFYRYARGWYRQAPGKERELVAAITRGGRTNYADSVKGRFTISRDNAQNTVYLQMNSLKPEDTAVYYCRPLWYGFDYWGQGTQVTVSS	high polyreactivity
QVQLVESGGGLVQEGGSLRLSCAASGRIFENNAMGWYRQAPGKERELVAAITSGGSTYYADSVKGRFTISRDNAKNTVYLQMNSLKPEDTAVYYCNVTFRVDPWTRTGYDYWGQGTQVTVST	high polyreactivity

— the nanobody polyreactivity screen of Harvey et al. (2022)
